Values quoted from earlier work in PMC8526499.
Read-outs that look alike come from different tables or passages of the source. One block for each substance: values may come before it.

Legend:
CD47 (Homo sapiens) [1] = target: CD47 (Homo sapiens) (UniProt Q08722)
CD47 (Homo sapiens) [2] = target: CD47 (Homo sapiens) (UniProt Q08722); remark: listed apart in the source
CD47 (Mus musculus) = CD47 (Mus musculus) (UniProt Q61735)
CD47 (Homo sapiens) [3] = target: CD47 (Homo sapiens) (UniProt Q08722); remark: listed apart in the source

Sequence of UniProt Q08722 (Q08722 19-323): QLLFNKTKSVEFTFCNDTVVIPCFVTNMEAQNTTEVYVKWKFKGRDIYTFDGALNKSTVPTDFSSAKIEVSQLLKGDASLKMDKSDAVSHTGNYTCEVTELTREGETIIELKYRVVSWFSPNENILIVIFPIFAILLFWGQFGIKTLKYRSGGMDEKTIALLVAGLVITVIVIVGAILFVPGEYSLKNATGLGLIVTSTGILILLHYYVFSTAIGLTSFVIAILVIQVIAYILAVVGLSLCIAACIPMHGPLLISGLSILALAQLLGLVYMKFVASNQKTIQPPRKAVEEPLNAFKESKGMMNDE
Sequence of UniProt Q61735 (Q61735 19-303): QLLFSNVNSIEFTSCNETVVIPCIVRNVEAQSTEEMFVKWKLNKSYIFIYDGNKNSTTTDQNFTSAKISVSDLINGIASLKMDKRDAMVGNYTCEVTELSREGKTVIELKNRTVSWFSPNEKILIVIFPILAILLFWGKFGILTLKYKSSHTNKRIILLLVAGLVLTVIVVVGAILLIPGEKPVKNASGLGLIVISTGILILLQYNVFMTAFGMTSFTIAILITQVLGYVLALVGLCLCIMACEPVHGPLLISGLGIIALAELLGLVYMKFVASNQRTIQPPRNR

Kd (CD47 (Homo sapiens) [1]): 450 nM
Substance: SIRPα (from UniProt P78324)

Kd (CD47 (Homo sapiens) [2]): 5000 nM
Kd (CD47 (Mus musculus)): 5000 nM
Substance: SIRPα (C57BL/6) (from UniProt P97797)

Kd (CD47 (Homo sapiens) [3]): 80 nM
Substance: SIRPα (NOD) (from UniProt P97797)
